# Test results: paper PMC10397247
# T1: 4H967-bA
# T1 chain: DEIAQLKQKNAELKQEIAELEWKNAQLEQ
# T2: 4H687-bA
# T2 chain: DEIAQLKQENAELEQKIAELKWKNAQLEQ
# T3: 4H918-bA
# T3 chain: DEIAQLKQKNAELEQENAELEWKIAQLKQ
# T4: 4H717-bA
# T4 chain: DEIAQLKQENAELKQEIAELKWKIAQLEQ
# T5: 4H454-bA
# T5 chain: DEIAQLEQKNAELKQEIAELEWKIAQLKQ
# T6: 4H72-bA
# T6 chain: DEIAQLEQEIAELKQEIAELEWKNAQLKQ
# T7: 4H568-bA
# T7 chain: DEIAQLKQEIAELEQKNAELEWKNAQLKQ
# T8: 4H754-bA
# T8 chain: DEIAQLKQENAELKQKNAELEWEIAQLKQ
# T9: 4H3427-bA
# T9 chain: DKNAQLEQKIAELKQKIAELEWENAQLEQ
# T10: 4H883-bA
# T10 chain: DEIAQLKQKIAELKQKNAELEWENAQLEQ
# T11: 4H797-bA
# T11 chain: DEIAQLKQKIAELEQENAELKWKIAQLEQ
# T12: 4H953-bA
# T12 chain: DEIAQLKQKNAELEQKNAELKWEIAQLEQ
# T13: 4H908-bA
# T13 chain: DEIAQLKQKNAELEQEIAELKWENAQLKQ
# T14: 4H3185-bA
# T14 chain: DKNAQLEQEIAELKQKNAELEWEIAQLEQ
# T15: 4H3782-bA
# T15 chain: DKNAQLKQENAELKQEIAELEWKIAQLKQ
# T16: 4H3112-bA
# T16 chain: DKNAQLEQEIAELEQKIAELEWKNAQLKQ
# T17: 4H3354-bA
# T17 chain: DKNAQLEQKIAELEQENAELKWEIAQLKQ
# T18: 4H331-bA
# T18 chain: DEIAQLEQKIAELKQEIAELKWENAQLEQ
# T19: 4H338-bA
# T19 chain: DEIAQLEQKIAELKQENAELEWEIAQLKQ
# T20: 4H2729-bA
# T20 chain: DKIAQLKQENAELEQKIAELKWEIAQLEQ
# T21: 4H607-bA
# T21 chain: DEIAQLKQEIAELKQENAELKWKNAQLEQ
# T22: 4H4001-bA
# T22 chain: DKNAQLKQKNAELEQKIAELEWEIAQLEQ
# T23: 4H3855-bA
# T23 chain: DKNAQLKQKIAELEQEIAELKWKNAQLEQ
# T24: APC2543-AA
# T24 chain: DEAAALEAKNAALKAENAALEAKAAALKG
# T25: APC6088-AA
# T25 chain: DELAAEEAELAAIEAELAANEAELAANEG
# T26: APC8516-AA
# T26 chain: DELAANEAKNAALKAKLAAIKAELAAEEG
# T27: APC9182-AA
# T27 chain: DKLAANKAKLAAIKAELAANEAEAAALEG
# T28: APC9291-AA
# T28 chain: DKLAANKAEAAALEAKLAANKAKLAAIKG
# T29: APC3323-AA
# T29 chain: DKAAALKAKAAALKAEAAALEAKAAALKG
# T30: APC9806-AA
# T30 chain: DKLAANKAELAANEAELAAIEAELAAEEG
# T31: APC4100-AA
# T31 chain: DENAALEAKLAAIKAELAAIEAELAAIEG
# T32: APC2724-AA
# T32 chain: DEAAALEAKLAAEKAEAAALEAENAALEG
# T33: APC2811-AA
# T33 chain: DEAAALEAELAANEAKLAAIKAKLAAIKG
# T34: APC3354-AA
# T34 chain: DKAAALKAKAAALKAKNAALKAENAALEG
# T35: APC542-AA
# T35 chain: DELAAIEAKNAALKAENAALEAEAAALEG
# T36: APC9141-AA
# T36 chain: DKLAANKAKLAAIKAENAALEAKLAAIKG
# T37: APC4336-AA
# T37 chain: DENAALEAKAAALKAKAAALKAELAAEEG
# T38: APC8401-AA
# T38 chain: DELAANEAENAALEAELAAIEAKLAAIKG
# T39: APC7524-AA
# T39 chain: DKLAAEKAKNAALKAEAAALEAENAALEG
# T40: APC5531-AA
# T40 chain: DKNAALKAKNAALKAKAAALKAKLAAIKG
# T41: APC5009-AA
# T41 chain: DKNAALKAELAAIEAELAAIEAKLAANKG
# T42: APC2981-AA
# T42 chain: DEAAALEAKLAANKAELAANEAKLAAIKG
# T43: APC2556-AA
# T43 chain: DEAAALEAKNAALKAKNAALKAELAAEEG
# T44: APC3881-AA
# T44 chain: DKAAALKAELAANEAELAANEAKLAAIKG
# T45: APC3265-AA
# T45 chain: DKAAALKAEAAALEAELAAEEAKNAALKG
# B1: 4H2729-bA (peptide)
# chain: DKIAQLKQENAELEQKIAELKWEIAQLEQ
# B2: APC2543-AA (peptide)
# chain: DEAAALEAKNAALKAENAALEAKAAALKG
# Columns and labels:
# 4H967-bA = molecular target: T1, 4H967-bA; assay: two-hybrid library CCNG1;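 further: natural log of median RNA to DNA barcode read ratio; higher means stronger binding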
# 4H687-bA = molecular target: T2, 4H687-bA; assay: two-hybrid library CCNG1;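 further: natural log of median RNA to DNA barcode read ratio; higher means stronger binding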
# 4H918-bA = molecular target: T3, 4H918-bA; assay: two-hybrid library CCNG1;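 further: natural log of median RNA to DNA barcode read ratio; higher means stronger binding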
# 4H717-bA = molecular target: T4, 4H717-bA; assay: two-hybrid library CCNG1;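 further: natural log of median RNA to DNA barcode read ratio; higher means stronger binding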
# 4H454-bA = molecular target: T5, 4H454-bA; assay: two-hybrid library CCNG1
# 4H72-bA = molecular target: T6, 4H72-bA; assay: two-hybrid library CCNG1
# 4H568-bA = molecular target: T7, 4H568-bA; assay: two-hybrid library CCNG1
# 4H754-bA = molecular target: T8, 4H754-bA; assay: two-hybrid library CCNG1
# 4H3427-bA = molecular target: T9, 4H3427-bA; assay: two-hybrid library CCNG1
# 4H883-bA = molecular target: T10, 4H883-bA; assay: two-hybrid library CCNG1
# 4H797-bA = molecular target: T11, 4H797-bA; assay: two-hybrid library CCNG1
# 4H953-bA = molecular target: T12, 4H953-bA; assay: two-hybrid library CCNG1
# 4H908-bA = molecular target: T13, 4H908-bA; assay: two-hybrid library CCNG1; conditions: mean of both orientations
# 4H3185-bA = molecular target: T14, 4H3185-bA; assay: two-hybrid library CCNG1
# 4H3782-bA = molecular target: T15, 4H3782-bA; assay: two-hybrid library CCNG1
# 4H3112-bA = molecular target: T16, 4H3112-bA; assay: two-hybrid library CCNG1
# 4H3354-bA = molecular target: T17, 4H3354-bA; assay: two-hybrid library CCNG1
# 4H331-bA = molecular target: T18, 4H331-bA; assay: two-hybrid library CCNG1
# 4H338-bA = molecular target: T19, 4H338-bA; assay: two-hybrid library CCNG1
# 4H2729-bA = molecular target: T20, 4H2729-bA; assay: two-hybrid library CCNG1
# 4H607-bA = molecular target: T21, 4H607-bA; assay: two-hybrid library CCNG1
# 4H4001-bA = molecular target: T22, 4H4001-bA; assay: two-hybrid library CCNG1
# 4H3855-bA = molecular target: T23, 4H3855-bA; assay: two-hybrid library CCNG1
# APC2543-AA = molecular target: T24, APC2543-AA; assay: two-hybrid library CCmax
# APC6088-AA = molecular target: T25, APC6088-AA; assay: two-hybrid library CCmax; conditions: mean of both orientations
# APC8516-AA = molecular target: T26, APC8516-AA; assay: two-hybrid library CCmax; conditions: mean of both orientations
# APC9182-AA = molecular target: T27, APC9182-AA; assay: two-hybrid library CCmax; conditions: mean of both orientations
# APC9291-AA = molecular target: T28, APC9291-AA; assay: two-hybrid library CCmax; conditions: mean of both orientations
# APC3323-AA = molecular target: T29, APC3323-AA; assay: two-hybrid library CCmax; conditions: mean of both orientations
# APC9806-AA = molecular target: T30, APC9806-AA; assay: two-hybrid library CCmax; conditions: mean of both orientations
# APC4100-AA = molecular target: T31, APC4100-AA; assay: two-hybrid library CCmax; conditions: mean of both orientations
# APC2724-AA = molecular target: T32, APC2724-AA; assay: two-hybrid library CCmax
# APC2811-AA = molecular target: T33, APC2811-AA; assay: two-hybrid library CCmax; conditions: mean of both orientations
# APC3354-AA = molecular target: T34, APC3354-AA; assay: two-hybrid library CCmax; conditions: mean of both orientations
# APC542-AA = molecular target: T35, APC542-AA; assay: two-hybrid library CCmax; conditions: mean of both orientations
# APC9141-AA = molecular target: T36, APC9141-AA; assay: two-hybrid library CCmax; conditions: mean of both orientations
# APC4336-AA = molecular target: T37, APC4336-AA; assay: two-hybrid library CCmax; conditions: mean of both orientations
# APC8401-AA = molecular target: T38, APC8401-AA; assay: two-hybrid library CCmax; conditions: mean of both orientations
# APC7524-AA = molecular target: T39, APC7524-AA; assay: two-hybrid library CCmax; conditions: mean of both orientations
# APC5531-AA = molecular target: T40, APC5531-AA; assay: two-hybrid library CCmax; conditions: mean of both orientations
# APC5009-AA = molecular target: T41, APC5009-AA; assay: two-hybrid library CCmax; conditions: mean of both orientations
# APC2981-AA = molecular target: T42, APC2981-AA; assay: two-hybrid library CCmax; conditions: mean of both orientations
# APC2556-AA = molecular target: T43, APC2556-AA; assay: two-hybrid library CCmax; conditions: mean of both orientations
# APC3881-AA = molecular target: T44, APC3881-AA; assay: two-hybrid library CCmax; conditions: mean of both orientations
# APC3265-AA = molecular target: T45, APC3265-AA; assay: two-hybrid library CCmax; conditions: mean of both orientations
binder,measurement,setting,value
B1,interaction score,4H967-bA,0.0132
same,interaction score,4H687-bA,-1.51
same,interaction score,4H918-bA,1.73
same,interaction score,4H717-bA,-1.35
same,interaction score,4H454-bA,1.84
same,interaction score,4H72-bA,-0.336
same,interaction score,4H568-bA,-1.78
same,interaction score,4H754-bA,-0.709
same,interaction score,4H3427-bA,-0.88
same,interaction score,4H883-bA,-1.72
same,interaction score,4H797-bA,-1.21
same,interaction score,4H953-bA,-1.01
same,interaction score,4H908-bA,-0.401
same,interaction score,4H3185-bA,-0.331
same,interaction score,4H3782-bA,0.712
same,interaction score,4H3112-bA,-0.141
same,interaction score,4H3354-bA,-0.919
same,interaction score,4H331-bA,-1.18
same,interaction score,4H338-bA,-0.713
same,interaction score,4H2729-bA,-0.254
same,interaction score,4H607-bA,-1.29
same,interaction score,4H4001-bA,-0.575
same,interaction score,4H3855-bA,-0.46
B2,interaction score,APC2543-AA,-1.71
same,interaction score,APC6088-AA,-1.87
same,interaction score,APC8516-AA,-1.7
same,interaction score,APC9182-AA,-1.84
same,interaction score,APC9291-AA,-1.67
same,interaction score,APC3323-AA,-1.36
same,interaction score,APC9806-AA,-1.56
same,interaction score,APC4100-AA,-1.65
same,interaction score,APC2724-AA,-1.16
same,interaction score,APC2811-AA,-1.54
same,interaction score,APC3354-AA,-1.72
same,interaction score,APC542-AA,-1.65
same,interaction score,APC9141-AA,-1.6
same,interaction score,APC4336-AA,-1.73
same,interaction score,APC8401-AA,-1.23
same,interaction score,APC7524-AA,-1.63
same,interaction score,APC5531-AA,-1.8
same,interaction score,APC5009-AA,-1.04
same,interaction score,APC2981-AA,-1.4
same,interaction score,APC2556-AA,-1.67
same,interaction score,APC3881-AA,-1.22
same,interaction score,APC3265-AA,-1.58
